From a protein production outcome set (Wang et al. 2014) come the findings set out here.
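Further: failed if final PepcDB status was selected cloned or expressed and not failed if soluble or beyond.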

A short description of this data set: label from the status in PepcDB records.
As for “MKVLCINPPDDLAALLGDGASFVSTMEPLGLLYVAAACREAGHEVAFIDAYAENLDEETLMRRIRDAAPQVVSFTSFTSNGGFLYTFGRRLRQEMPGVHVLLGNVHATIYARQYLASGCCDVVVRGEGEEVMPALLRVLEEGGDLATVPSIAYVRDGVVAETGGHAFVRDLSTLPLPARDLTRKELYSFARTPNFSLYRTPEGKTEKHLFSSRGCVNRCTFCVAHKNIGIRVRPIDSVIGEVDLLLREYDAGYIFFCDSLFTSRKKRIIELSDALRHHFPGLRWGCEAHVNTIDEDSVRAMAAGGCVDMNFGIESGVDRLLTAVNKRQTTAQIADAIRMVKRVSRINAIGLFILGLPGERPEDSDATIDFACSLPLDMAQFSILTPYPGSPIFEQLRAEGIIDDGVRPGDTLDPEVWRRYSSYASFSDNKPIWVTPEHSVEGLLAAQKRALRRFYLRPRPFLIQLRRLRPADLLDTARTFFKTFF”, the protein production entry is given as “failed”.

As to “MKVLTDLQKRIFAIVKKENGKPIPPGIVVRMMENQAGFPGKQQVYRAIDDLLEWHIFRKSGGATNQLLINYELADPVLDQKFQGILNLGNKNTGFVRPLDDDKTVYYIHFSNLAGALDGDLVEFCPLDKPQVGDKFDAAVLKIVKRSRVLYAGNFLIEYSDFGQEFRIVADNPRFYLTPIVNKASVPAELESNTKVAFQIDEYDPANNLCKVSIQQILGNNDEPLINLKAIMLDHSIVFEDNDVVEQQAAKLQFDEKEQSKPYRKDLTELAFVTIDPATSKDLDDAIYVKRTDKGFVLYVAIADVAYYVQRNSELDIEARHKTSSIYLPGYYVVPMLPERLSNELCSLNPNEKRYVVVCELNFDHEARLNFSEVYPATIVSQRRFAYSEVNDWLEDSDALKDESATVLESLKAGFTLSELIAEQRKKKGTIDLSHSETEVVVDQNYYPIEIRFLTHGKAETMIENLMVVANEAVAWTLTNHKVHLPYRVHPRPSKKKLQMLLENIVELKITQPNFVLDTVTSTQIAAWLKENKDNPSYDIFVILLLRTLGKAFYIVNPLIHFSIGSHHYTHFTSPIRRYADLTVHRLLWMNLFTPERFTDTEREQLNAELEQICETINDTEIKINGCERTANDYLTTLYLSKQVGQTFHGFISAITSFGIFMRMDENNFDGLIKITSIPEDFFVFEKDRMVLRGKRTNKVFRIGDRLTAKLTEIDTVQKRAILTLV”, the protein production result is on record as “failed”.

On to “MKVRADFAFEKVARDWFVRWSKGRSEKYAGQVMRNFERWVFPAIGNLDIRQVRTADVVGCLRVMEARGIVDTLRKTKNSLKMVFAFAVGSGMMEINPVAQIGSGVFERLEHHHHHH”, for which the protein production entry is listed as “not failed”.

Regarding “MKVSIIVPCYSVASKLPRCVHNLLAQTFTDWELILIDDGSTDNTWDICNSFTKNNAHIHAVHKENGGVSSARNTGIEIAKGEFITFIDSDDYVKPDYLQKLVEGQEADLVLCGFRSSTGIDFTPEPQYLIGDDLSKNIQAIVENDYLLYSPWCKLFRRDIIQKHQHRFDPEIRLGEDTIFCYKYLLYCSSIKVVASNSYFYDGVWGGYKKYVLTRQEVEYLDKAEITTLHDINQHFNCRIDLTYRGYHVAMLKGLYEKFRDYDTFEMYTRTHDVLPPEHFFANHKLSYIFWGIVELETLYVDKEYCAGKLFMQRLHHFFTIPTNQLLSYSYKMRLIHYLVKSKHYTMAHVLLIFLSILKHLEHHHHHH”, the protein production entry is “failed”.

For the sequence “MKVVGLDLGGTKIAAGVFDGKRLLSKVVVPTPKEGGERVAEALAEAAERAEREAGVRGEAIGLGTPGPLDFRRGVIRFAPNIPGVQDFPIRRILEEATGRPVFLENDANAAALAEHHLGAAQGEESSLYLTVSTGIGGGVVLGGRVLRGERGQGGELGHLTLLPGGPACGCGLEGCLEALAAGRALERDATYAFQRPVDTRELFRLFQAGDPKAERLVLQAARYVGIGLASLVKAFDPGVVVLGGGVALNAPEGYWEALLEAYRRYLQGWEAPPLRRARLGAEAGLLGAALTAYLEVKDGSG”, the protein production result was “not failed”.

On to “MKVYFDDIYVSTARQFELVDITDQVEQIVEKSGIKNGICLIFVAHSTAAIVANEHERGLMEDILTKIKEFTEPSRSWKHNLIDDNAHAHLGATFLGAERVFPVREGKLVRGTWQNIFLVELDGPRSERHITVEILGE”, for which the protein production result was “not failed”.

As for “MKWARPSMHSSAQRKLIMTRILSIIGVSLCIAMLSPVLQAANLKTLDVAALPGDRIELKLAFDAPVPAPRGYTTAQPARIALDLPGVTSQLETKSRELGTGNARSVVVVQAQDRTRVIINLTTLAPYSSRVDGNNLFVVIGQGAAAAQASQPTTAMGAQRVAVPPPAPASARPFIPAGVKAIRNVDFQRGELGEGNVVIDLSNPSIAPDIQEQGGKIRVDFAKTQLPEPLRVRLDVKDFATPVQFVSASATGDKASILIEPSGAFDYSAFQTENKLTISVRPLTNEDLDRRAADKPVYTGEKLSLNFQDIDVRSVLQLIADFTNLNLVASDTVQGGITLRLQNVPWDQALDLVLKTKGLDKRKVGSVLLVAPADEIAARERQELESLKQIAELAPLRRELLQVNYAKAADIAKLFQSVTSAESKAEERGSITVDDRTNNIIAYQTQDRLDELRRIVSQLDIPVRQVMIEARIVEANVDYNKQLGVRWGGSTNTSRNGKWTTYGLDDNGDEGGNTNANLTSNIPFVDLGAADATTGIGLGFVTNNTLLDLELSAMEKTGNGEIVSQPKVVTSDKETAKILKGTEIPYQESSSSGATTVSFKEASLSLEVTPQITPDNRIIMEVKVTKDEPDYLNAVLGVPPIKKNEVNAKVLISDGETIVIGGVFSNTQSKVVDKVPFLGDVPYLGRLFRRDVVSESKSELLVFLTPRIMNNQAISVSR”, the protein production result was “failed”.

As for “MKYLASFRTTLKASRYMFRALALVLWLLIAFSSVFYIVNALHQRESEIRQEFNLSSDQAQRFIQRTSDVMKELKYIAENRLSAENGVLSPRGRETQADVPAFEPLFADSDCSAMSNTWRGSLESLAWFMRYWRDNFSAAYDLNRVFLIGSDNLCMANFGLRDMPVERDTALKALHERINKYRNAPQDDSGSNLYWISEGPRPCVGYFYALTPVYLANRLQALLGVEQTIRMENFFLPGTLPMGVTILDENGHTLISLTGPESKIKGDPRWMQERSWFGYTEGFRELVLKKNLPPSSLSIVYSVPVDKVLERIRMLILNAILLNVLAGAALFTLARMYERRIFIPAESDALRLEEHEQFNRKIVASAPVGICILRTADGVNILSNELAHTYLNMLTHEDRQRLTQIICGQQVNFVDVLTSNNTNLQISFVHSRYRNENVAICVLVDVSSRVKMEESLQEMAQAAEQASQSKSMFLATVSHELRTPLYGIIGNLDLLQTKELPKGVDRLVTAMNNSSSLLLKIISDILDFSKIESEQLKIEPREFSPREVMNHITANYLPLVVRKQLGLYCFIEPDVPVALNGDPMRLQQVISNLLSNAIKFTDTGCIVLHVRADGDYLSIRVRDTGVGIPAKEVVRLFDPFFQVGTGVQRNFQGTGLGLAICEKLISMMDGDISVDSEPGMGSQFTVRIPLYGAQYPQKKGVEGLSGKRCWLAVRNASLCQFLETSLQRSGIVVTTYEGQEPTPEDVLITDEVVSKKWQGRAVVTFCRRHIGIPLEKAPGEWVHSVAAPHELPALLARIYLIEMESDDPANALPSTDKAVSDNDDMMILVVDDHPINRRLLADQLGSLGYQCKTANDGVDALNVLSKNHIDIVLSDVNMPNMDGYRLTQRIRQLGLTLPVIGVTANALAEEKQRCLESGMDSCLSKPVTLDVIKQTLTVYAERVRKSRDS”, the protein production entry is recorded as “failed”.

Take “MKYLLIFLLVLAIFVISVTLGAQNDQQVTFNYLLAQGEYRISTLLAVLFAAGFAIGWLICGLFWLRVRVSLARAERKIKRLENQLSPATDVAVVPHSSAAKE”: the protein production entry is on record as “failed”.

For the sequence “MKYNYTVLLSAFTMSVLYSVIYIHSFIIAALITMAFYFLFPYLIFALPLQIMMNKKPKRFSPLYLLYYLAAAFIANAIIFGMLQPSGQSLFQNTAFYLFAVLTALIYWIWDSVLLQKKEA”, the protein production entry was “failed”.

Consider “MKYQNFIMRILCLLLILAAVVGYNSMQKKDTQAQESQEITALTKRVEKLEEQNTEILSALEEAAKNQEAAIAQAQRDAKDKDDAAKEDAEGADAADTEESDDSENVYKDGTYTGSAQGFGGAITVQVTLANDEITDIQVTSAPGEDSAYLSQGEGVISSIISAQSTDVDTVSGATFSSTGIINAVVDALGKAEN”, for which the protein production entry is listed as “failed”.

In the case of “MKYSLCTISFRHQLISFTDIVQFAYENGFEGIELWGTHAQNLYMQEYETTERELNCLKDKTLEITMISDYLDISLSADFEKTIEKCEQLAILANWFKTNKIRTFAGQKGSADFSQQERQEYVNRIRMICELFAQHNMYVLLETHPNTLTDTLPSTLELLGEVDHPNLKINLDFLHIWESGADPVDSFQQLRPWIQHYHFKNISSADYLHVFEPNNVYAAAGNRTGMVPLFEGIVNYDEIIQEVRDTDHFASLEWFGHNAKDILKAEMKVLTNRNLEVVTS”, the protein production result is recorded as “not failed”.

For the sequence “MKYWMLLFALLWVSYGTGMARKTEKVVNNGIPWFDDRGEIVNAHGACIVEENGRYYLFGEYKSDKSNAFPGFSCYSSDDLVNWKFERVVLPMQSSGILGPDRVGERVKVMKCPSTGEYVMYMHADDMNYKDPHIGYATCSTIAGEYKLHGPLLYEGKPIRRWDMGTYQDTDGTGYLLLHGGIVYRLSKDYRTAEEKVVSGVGGSHGESPAMFKKDGTYFFLFSNLTSWEKNDNFYFTAPSVKGPWTRQGLFAPEGSLTYNSQTTFVFPLKCGEDTIPMFMGDRWSYPHQASAATYVWMPMQVDGTKLSIPEYWPSWDVDKLKPVNPLRKGKTVDLKKITFSKEADWKVEEGRISSNVKGSTLSIPFTGSCVAVMGETNCHSGYARMNILDKKGEKIYSSLVDFYSKANDHATRFKTPQLAEGEYTLVIEVTGISPTWTDKTKRIYGSDDCFVTITDIVKL”, the protein production entry is “failed”.

With “MLAALEVAVPALYAVAIVVLTAYGGNLLWLALVHAASERLRDGPVPDPDDLPVPDDDWPVVTVQLPLYNEAEVAHRLIDACVQLDYPRSRLDIQVLDDSTDATTERVARRVAHWQAEGVNITHVRRDDRTGYKAGALANGLQRARGDLIAIFDADFVPRPSFLRRLVPRFFDAPDLGMVQARWGHLNRDDSLLTKVQAFGLDAHFAIEQRVRELAGCFLNFNGTAGVWRRACIEDAGGWAHDTLTEDLDLSYRAQLQGWRLTYVPAAEAPAELPPDMNALRAQQFRWAKGGAETALKLTGRLWRSAQPWRVKLEGTFHLTAHFAFPFILLAALTHAPLLLLKGIGHGPGEVYFAVMGFGLFGFAGFFLAQLFAQRALHPDWRRRLRLFVPFMAGTMGLSLSNTSAVWQALRGTDTAFIRTPKVGSAGGDGWWESRYAIREVPRIVWGELALAVYSTVGLGVVIGLGEWAAVPFQALFALGFALVTASSLRQALTAQQGPTASAPASSPAA”, the protein production result is “failed”.

For the sequence “MLAALFSIAAVFGFHAEDEPYIVTLPWYELFSSAAKAVAGTIHNPFGLFGARVSVFFIRVLLGYPSVMPLFGFLVLGWHLFRAKPLGPGLFFLVYTLLMALDLSAMFGLSMLPLADLMSGATGRMMASFLSTVIGYPGAWALTAIIAAVLTFYMGRDFIVDTIAGVSGFFGKLLATVQAIRAERHRKRREKEEMRVRKKAERMAAVLEKEQRKRDKKAQRARKAGDASKQKAAPFENSPETPAPVMDVEPAPPLLNPAVSEPVVIPAEVEEIRTPEPAPVRPEEGPEMIIKPGVQEAEADLDERALKVRTHDHVKYRFPSIDLLRRPKDEDESYDERHLAETKDRLLEKLRIYKIDVIRIATTVGPRVALFELELAPEVKISRIKSLENDLAMAMASSSGGIRIIAPIPGKNAIGVEIPISKPRPVVMRSVLQVEKFKNNSMALPIVLGKSISNEVIVDDLAAMPHLLIAGATGAGKSVAINVLLTSLLYSKKPDEVKFVLIDPKRVELKPYKLLKDHFLPKIPGMEEQIIVTDPQKAVSALRSVVREMEHRYELLEQCGVRNIGEYNRKMKDEAMFYLVVVVDELADLMITAGREVEEPITRLAQMARAVGIHLIVATQRPSVDIITGIIKANFPSRIAFQVASKVDSRTILDVSGAEQLLGSGDMLFQSAKMSKPQRIQCPYISLSEVDAITEFIGQQPPLRAECMLPEPPSSSGNGSSSGFDQDRGRRDSMFEEAARLVVMHQQASVSLLQRRLRLGFSRAGRVMDQLEQSGIVSAGDGSKPREVLVKNEDSLELLLRNLD”, the protein production entry was “failed”.
